Results as given in publication PMC3035906 (Cell Death & Disease, 2010).

Biological target: DR4-Ig (death receptor 4, Ig fusion) (UniProt O00220)
Experiment: SPR

DR4-Ig (death receptor 4, Ig fusion), sequence (O00220 24-239): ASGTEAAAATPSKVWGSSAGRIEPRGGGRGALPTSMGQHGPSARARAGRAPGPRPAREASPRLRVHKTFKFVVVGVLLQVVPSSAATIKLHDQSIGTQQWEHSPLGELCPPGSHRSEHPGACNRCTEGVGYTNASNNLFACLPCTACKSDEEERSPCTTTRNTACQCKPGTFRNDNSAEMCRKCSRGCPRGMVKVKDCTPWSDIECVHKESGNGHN

B1: rhTRAIL variant 4C7 (G131R/R149I/S159R/N199R/K201H/S215D) (ligand)
chain: VRERGPQRVAAHITGTRRRSNTLSSPNSKNEKALGIKINSWESSRRGHSFLSNLHLRNGELVIHEKGFYYIYSQTYFRFQEEIKERTHNDKQMVQYIYKYTDYPDPILLMKSARNSCWSKDAEYGLYSIYQGGIFELKENDRIFVSVTNEHLIDMDHEASFFGAFLVG
  Kd: 0.021 ± 0.01 nM
  koff: 5.9e-05 s⁻¹
  kon: 2.81e+06 M⁻¹ s⁻¹

B2: rhTRAIL variant 4C9 (G131R/R149I/S159R/S215D) (ligand)
chain: VRERGPQRVAAHITGTRRRSNTLSSPNSKNEKALGIKINSWESSRRGHSFLSNLHLRNGELVIHEKGFYYIYSQTYFRFQEEIKENTKNDKQMVQYIYKYTDYPDPILLMKSARNSCWSKDAEYGLYSIYQGGIFELKENDRIFVSVTNEHLIDMDHEASFFGAFLVG
  Kd: 0.025 ± 0.02 nM
  koff: 5.8e-05 s⁻¹
  kon: 2.35e+06 M⁻¹ s⁻¹
